According to patent publication US20200230057A1, “Pharmaceutical Compositions, Methods for Preparation using Lipid Vesicle Particles of Defined Size, and Uses Thereof” (IMMUNOVACCINE TECHNOLOGIES INC., priority 2017, published 2020):
Values joined by “and” are separate entries in the source; they are usually repeats but may differ in a detail not shown here. Identical values can stand only once. Like-named read-outs stand apart in the source and are kept apart here.

Assays:
[1] = HPLC peptide recovery before and after freeze-drying
Protocol: The composition prepared as described in Example 4, containing 14 neoantigens and the A16L T-helper peptide, was subjected to HPLC analysis to evaluate the peptide stability before and after freeze-drying.
Experimental Conditions: • IPQC Solutions: Dilute the IPQC solutions with Methanol and then with Mobile Phase A, e.g. as follows: • 100 mg In-Process Testing Solution • +450 μL Methanol, mix • +450 μL Mobile Phase A, mix • Mix by vortexing. Samples containing lipids will be slightly hazy. Dilution factor=10×. • Lyophilisates (for Release and Stability Testing): Solubilize the lyophilisate with Ultrapure lab water. Add 3-4 glass beads and vortex vigorously for 1 minute to assure complete homogenization. Dilute the solution with Methanol and subsequently with Mobile Phase A, e.g. as follows: • 100 mg In-Process Testing Solution • +450 μL Methanol, mix • +450 μL Mobile Phase A, mix • Mix by vortexing. The sample preparations will be slightly hazy. Dilution factor=20×.
The dried preparations were solubilized in water for HPLC analysis. T=0 is the day in which the samples were removed from the freeze-dryer. T=1M and T=3M are 1 month and 3 months after T=0, respectively, with the dried preparation having been stored at −20° C.

[2] = tested on: C57BL/6NCrl mice; assay: IFN-gamma ELISPOT of splenocytes eight days after single vaccination; type: in vivo; details: oil-based composition with 14 neoantigens, single administration, response to the named neoantigen
[3] = After freeze dry T = 1M, stored at −20° C.
[4] = After freeze dry T = 3M, stored at −20° C.

Sequence	Amount from non-validated HPLC assay ([1]; After freeze dry T = 0) [mg/mL]	Amount from non-validated HPLC assay [1, 3] [mg/mL]	Amount from non-validated HPLC assay [1, 4] [mg/mL]	Amount from non-validated HPLC assay ([1]; Before freeze dry) [mg/mL]	Improvement of immune response over comparative aqueous composition [2]	Amount from non-validated HPLC assay [1]
TAVITPPTTTTKKARVSTPKPATPSTD (Mut24) [Mut 24]	0.44	0.38	0.37	0.56		
PKPDFSQLQRNILPSNPRVTRFHINWD (Mut22) [Mut 22]	0.51	0.47	0.54	0.54		
CGTAFFINFIAIYHHASRAIPFGTMVA (Mut36) [Mut 36]	0.19	0.25	0.31	0.47		
ECRITSNFVIPSEYWVEEKEEKQKLIQ (Mut45) [Mut 45]	0.44	0.42	0.46	0.47		
IPSGTTILNCFHDVLSGKLSGGSPGVP (Mut29A) [Mut 29a]	0.38	0.34	0.35	0.54		
SFACLRQPSQGPTVGVKGGAAGGGYAQ (Mut29B) [Mut 29b]	0.48	0.44	0.48	0.56		
EFKHIKAFDRTFANNPGPMVVFATPGM (Mut44) [Mut 44]	0.47	0.44	0.50	0.51	about 3 fold	
GFSQPLRRLVLHVVSAAQAERLARAEE (Mut50) [Mut 50]	0.42	0.44	0.46	0.42		
SHCHWNDLAVIPAGVVHNWDFEPRKVS (Mut48) [Mut 48]	0.38	0.37	0.41	0.47		
NIEGIDKLTQLKKPFLVNNKINKIENI (Mut28) [Mut 28]	0.50	0.50	0.51	0.53		
PSKPSFQEFVDWENVSPELNSTDQPFL (Mut30) [Mut 30]	0.51	0.51	0.56	0.53		
VVDRNPQFLDPVLAYLMKGLCEKPLAS (Mut17) [Mut 17]	0.27	0.23	0.26	0.51		
STANYNTSHLNNDVWQIFENPVDWKEK (Mut25) [Mut 25]	0.54	0.50	0.56	0.56	about 5 fold	
FRRKAFLHWYTGEAMDEMEFTEAESNM [Mut 20]						0.41 mg/mL and 0.47 mg/mL and 0.54 mg/mL and 0.42 mg/mL
